Legend:
[1] = test system: atrial thrombi and injured left atrium; parameters: species or system Yorkshire swine; details: in vivo
Protocol: • A. Animal Preparation - LA Vascular Thrombi. […] Continuous electrocardiographic monitoring was instituted using alligator clip electrodes. […] The incision was held open by a thoracotomy retractor. […] The cross-clamp was removed 10 minutes later. […] The intravenous line was then flushed with saline. […] Res. Commun. 80: 849-57, 1978). […] Image acquisition was performed as described below. […] A final blood sample was taken for well counting. […] Open Chest Sham. […] Closed Chest Sham. In seven animals, an ear intravenous line was established. No thoracotomy was performed. […] Ovalbumin. […] Indium Platelets. […] J. Cardiol. […] Non-specific Tc-Labeled Antibody. […] Imaging. […] The cobalt marker was then removed. […] These were followed by a 10 minute tomographic acquisition. […] Each image was scored as positive, equivocal or negative. […] Each vial was counted for 1 minute.
For the injured tissues and thrombi, multiple specimens were usually taken from the same animal. In those cases, the maximum ratio for any one specimen is reported, as well as the average of all specimens taken. The maximum for each animal was averaged across all animals and is reported as the Maximum Anx-V Ratio.

[2] = in vivo
Protocol: • A. Animal Preparation - LA Vascular Thrombi. Fasting 25-30 kg Yorkshire swine were sedated with intramuscular Telazol (5-10 mg/kg) (commercially available from AVECO Co.) and commercially available Atropine (1 mg, Elkins-Sinn, Inc., Cherry Hill, NJ). Surital (200 mg) (commercially available from Abbott Laboratories) anaesthesia was administered intravenously. The animals were intubated and given inhalation anaesthesia of 1.5-2% halothane (commercially available from Abbott Laboratories) and O2 sufficient to obtain a deep level of anesthesia and physiologic arterial blood gases. Continuous electrocardiographic monitoring was instituted using alligator clip electrodes. A cut down in the neck region was conducted, and an 8 french catheter (USCI Co, Billerica, MA) was placed in the right common carotid artery for blood pressure and arterial blood gas monitoring as well as for blood sampling. The swine were placed in a right lateral decubitus position, and a lateral thoracotomy was performed to expose the heart. The incision was held open by a thoracotomy retractor. The pericardium was opened, and the left atrial appendage was isolated from the left atrium by a vascular cross- clamp. Rubber tipped forceps were used to gently crush the appendage. Five minutes later, ricinoleate (1 mg, ICN Pharmaceuticals, Costa Mesa, CA) and thrombin (50 mg, Johnson and Johnson Co., Arlington, Texas) were injected into the LAA (left atrial appendage) using a 27 Ga needle. The cross-clamp was removed 10 minutes later. One hour after the crush injury, Tc-99m-annexin V, prepared in accordance with Example I above, was administered as an intravenous bolus dose in an ear vein. The intravenous line was then flushed with saline. In 7 animals, I-125 labeled ovalbumin was administered as a non-specific control preparable, for example, by the procedure described by Fraker et al., Biochem. Biophys. Res. Commun. 80: 849-57, 1978). Briefly, I-125-radiolabeled ovalbumin was prepared by the Iodogen method, employing 600 µg ovalbumin (Sigma Chemical Co., St. Louis, Missouri) and NaI-125 (2mCi, 0.92 nmol). Image acquisition was performed as described below. At the end of the experimental procedure (generally about 150 minutes), the animals were sacrificed by an intravenous bolus dose of 80 mEq of KCl while the animals were still under general anaesthetic. A final blood sample was taken for well counting. The heart was rapidly excised, washed free of blood and dissected into samples for well counting. Additional samples of carotid artery, lung, liver, spleen, muscle and kidney were obtained in some animals. • B. Controls. Five different types of controls were used: open chest sham; closed chest sham; ovalbumin; indium platelets; and non-specific Tc-99m-labeled antibody. • 1. Open Chest Sham. In three animals, the heart was exposed as above, but the left atrium was not isolated, crushed or injected with ricinoleate/thrombin. Marker images with a cobalt marker were performed as described below, and the Tc-99m-annexin V was injected 30-60 minutes after LAA exposure. Imaging and sample acquisition were identical to that described in A above. • 2. Closed Chest Sham. In seven animals, an ear intravenous line was established. No thoracotomy was performed. Sedation and anesthesia were identical to that described in A above. The Tc-99m-annexin V (+/other control radionuclides, such as I-125 ovalbumin or In-111-platelets) was administered and image acquisition was performed. • 3. Ovalbumin. I-125 ovalbumin was administered in 7 animals as a negative control protein. […] Indium Platelets. In-111 platelet labeling was performed in 7 animals as a positive well counting label. In-111 radiolabeled platelets were prepared in accordance with the procedure described by Stratton et al., Am. J. Cardiol. 47: 874, 1981 and Stratton et al., Circulation 69: 561, 1984. Imaging was not attempted because of the long serum half-life of the In-111-platelets. • 5. Non-specific Tc-Labeled Antibody. […]

[3] = test system: freshly isolated human platelets; test: competition assay: inhibition of binding of unmodified 125I radiolabeled annexin V to platelets
Protocol: The ability of galactose-modified annexin V to bind to activated platelets was assessed by determining its ability to inhibit the binding of unmodified, ^125I radiolabeled annexin V to freshly isolated human platelets, following the method of Thiagarajan and Tait J. Biol. Chem. 265: 17240-43, 1990.

Molecule	highest non-target localization [1]	%ID/g a [2] [%ID/g]	%ID/g b [2] [%ID/g]	ID/g cleared in the slower b phase [2] [%]	a + b [2]	t1/2 a [2] [min]	t1/2 b [2] [min]	Competition (% of control) ([3]; absolute value (left column), inhibition of 125I annexin V binding to human platelets)	Competition (% of control) ([3]; value normalized to 100% for unmodified annexin V (right column))
Tc-99m-annexin V: annexin V radiolabeled with Tc-99m by a diamide dimercaptide N2S2 chelate (Example I)	kidney	0.0389	0.0300	43	0.0689	9.6	46		
1.1: galactose-modified annexin V, substitution ratio 1.1:1 (offering ratio 75:1) (conjugate, UniProt P08758 2-320, looked up, galactose-modified) Annexin A5: AQVLRGTVTDFPGFDERADAETLRKAMKGLGTDEESILTLLTSRSNAQRQEISAAFKTLFGRDLLDDLKSELTGKFEKLIVALMKPSRLYDAYELKHALKGAGTNEKVLTEIIASRTPEELRAIKQVYEEEYGSSLEDDVVGDTSGYYQRMLVVLLQANRDPDAGIDEAQVEQDAQALFQAGELKWGTDEEKFITIFGTRSVSHLRKVFDKYMTISGFQIEETIDRETSGNLEQLLLAVVKSIRSIPAYLAETLYYAMKGAGTDDHTLIRVMVSRSEIDLFNIRKEFRKNFATSLYSMIKGDTSGDYKKALLLLCGEDD								21.4 % of control	28.7 % of control

Source: patent publication EP1364964A1, “Radiolabeled annexingalactose conjugates” (NEORX CORPORATION, priority 1994, dated 1995)
